Values quoted from earlier work, collected in publication PMC2888830.

Target: integrin αIIbβ3 (Homo sapiens) (UniProt P08514)

With disagregin (from UniProt P36235) as the substance, how does the Kd read?
The Kd was 40 nM.
